1 protein from publication doi:10.1101/093708 (bioRxiv, 2016) can be followed below.

This data set deals with the molecule itself. Put plainly: cryo-EM structure; EcFtsZ 0.5 mg/mL in 50 mM HEPES-KOH, 100 mM potassium acetate, 5 mM magnesium acetate, pH 7.7, 20 °C, 0.1 mM GMPCPP; helical reconstruction of filaments in RELION.

B1: Escherichia coli FtsZ, full length, untagged, wildtype (natural protein, E. coli, UniProt P0A9A6 1-383, looked up)
chain: MFEPMELTNDAVIKVIGVGGGGGNAVEHMVRERIEGVEFFAVNTDAQALRKTAVGQTIQIGSGITKGLGAGANPEVGRNAADEDRDALRAALEGADMVFIAAGMGGGTGTGAAPVVAEVAKDLGILTVAVVTKPFNFEGKKRMAFAEQGITELSKHVDSLITIPNDKLLKVLGRGISLLDAFGAANDVLKGAVQGIAELITRPGLMNVDFADVRTVMSEMGYAMMGSGVASGEDRAEEAAEMAISSPLLEDIDLSGARGVLVNITAGFDLRLDEFETVGNTIRAFASDNATVVIGTSLDPDMNDELRVTVVATGIGMDKRPEITLVTNKQVQQPVMDRYQQHGMAPLTQEQKPVAKVVNDNAPQTAKEPDYLDIPAFLRKQAD
notes: also called EcFtsZ; E. coli FtsZ; source: E. coli C41 (DE3), purified (GTP and calcium-induced precipitation, Mono Q)
Regarding B1, the binding result is “binds”.
